Test results as given in article PMC11261597, “Three-Step Enzymatic Remodeling of Chitin into Bioactive Chitooligomers” (Journal of Agricultural and Food Chemistry, 2024).

Test system: T1, CC(=O)N[C@H]1[C@H](Oc2ccc([N+](=O)[O-])cc2)O[C@H](CO)[C@@H](O[C@@H]2O[C@H](CO)[C@@H](O[C@@H]3O[C@H](CO)[C@@H](O)[C@H](O)[C@H]3NC(C)=O)[C@H](O)[C@H]2NC(C)=O)[C@@H]1O
T1 construct: synthetic gene, codon-optimised, pPICZαA (EcoRI/KpnI), secreted from Pichia pastoris KM71H, purified by Q-Sepharose
Assay: purified protein
Assay type: biochemical, Talaromyces flavus
Conditions: 50 mM citrate/phosphate pH 5.0, 25 °C, 0.1–6 mM substrate

Sequence of TfChit (Talaromyces flavus; F231W) (chain, as listed by the source F231W): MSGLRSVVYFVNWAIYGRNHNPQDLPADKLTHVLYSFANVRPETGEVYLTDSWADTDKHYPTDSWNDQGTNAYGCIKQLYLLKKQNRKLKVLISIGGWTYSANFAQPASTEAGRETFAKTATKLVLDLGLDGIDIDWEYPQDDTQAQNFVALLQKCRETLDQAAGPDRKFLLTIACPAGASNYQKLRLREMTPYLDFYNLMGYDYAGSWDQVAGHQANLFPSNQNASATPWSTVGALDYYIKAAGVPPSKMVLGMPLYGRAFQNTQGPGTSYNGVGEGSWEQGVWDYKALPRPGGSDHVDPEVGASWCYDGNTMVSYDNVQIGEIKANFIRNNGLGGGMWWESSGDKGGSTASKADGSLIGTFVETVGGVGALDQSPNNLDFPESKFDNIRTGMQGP
Sequence of TfChit (Talaromyces flavus; D136V/W209A) (chain, as listed by the source D136V W209A): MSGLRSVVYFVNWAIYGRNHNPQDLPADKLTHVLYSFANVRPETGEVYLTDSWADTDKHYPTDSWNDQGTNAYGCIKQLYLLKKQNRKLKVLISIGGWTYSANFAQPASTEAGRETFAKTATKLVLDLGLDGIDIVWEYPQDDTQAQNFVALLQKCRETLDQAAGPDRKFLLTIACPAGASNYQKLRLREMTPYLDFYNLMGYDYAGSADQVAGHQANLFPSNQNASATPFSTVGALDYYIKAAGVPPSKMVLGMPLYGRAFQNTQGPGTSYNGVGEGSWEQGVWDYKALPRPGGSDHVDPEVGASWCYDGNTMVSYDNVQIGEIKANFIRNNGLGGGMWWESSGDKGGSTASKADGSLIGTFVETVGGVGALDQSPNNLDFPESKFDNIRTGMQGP
Sequence of TfChit (Talaromyces flavus; D136V/S181W/W209A) (chain, as listed by the source D136V S181W W209A): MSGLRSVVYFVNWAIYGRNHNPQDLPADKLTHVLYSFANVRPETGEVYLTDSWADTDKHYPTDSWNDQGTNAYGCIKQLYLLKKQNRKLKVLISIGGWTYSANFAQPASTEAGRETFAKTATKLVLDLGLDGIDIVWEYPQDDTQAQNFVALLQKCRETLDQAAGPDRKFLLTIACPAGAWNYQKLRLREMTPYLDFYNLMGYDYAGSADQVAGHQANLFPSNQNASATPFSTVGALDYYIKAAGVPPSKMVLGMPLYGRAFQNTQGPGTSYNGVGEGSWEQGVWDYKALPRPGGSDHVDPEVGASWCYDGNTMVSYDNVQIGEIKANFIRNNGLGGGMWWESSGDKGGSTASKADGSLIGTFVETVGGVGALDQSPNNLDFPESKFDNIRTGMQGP
Sequence of TfChit (Talaromyces flavus; D136V) (chain, as listed by the source D136V): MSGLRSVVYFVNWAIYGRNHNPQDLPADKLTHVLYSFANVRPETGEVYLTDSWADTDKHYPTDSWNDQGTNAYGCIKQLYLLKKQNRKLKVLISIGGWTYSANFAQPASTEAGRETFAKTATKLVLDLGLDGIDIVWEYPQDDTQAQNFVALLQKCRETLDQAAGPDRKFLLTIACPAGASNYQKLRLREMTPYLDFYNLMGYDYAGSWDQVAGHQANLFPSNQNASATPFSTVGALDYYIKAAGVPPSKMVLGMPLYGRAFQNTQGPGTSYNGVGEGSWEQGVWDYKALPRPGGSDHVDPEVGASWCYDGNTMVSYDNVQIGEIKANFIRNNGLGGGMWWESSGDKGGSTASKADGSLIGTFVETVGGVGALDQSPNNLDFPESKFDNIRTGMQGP
Sequence of TfChit (Talaromyces flavus; D136V/S181W) (chain, as listed by the source D136V S181W): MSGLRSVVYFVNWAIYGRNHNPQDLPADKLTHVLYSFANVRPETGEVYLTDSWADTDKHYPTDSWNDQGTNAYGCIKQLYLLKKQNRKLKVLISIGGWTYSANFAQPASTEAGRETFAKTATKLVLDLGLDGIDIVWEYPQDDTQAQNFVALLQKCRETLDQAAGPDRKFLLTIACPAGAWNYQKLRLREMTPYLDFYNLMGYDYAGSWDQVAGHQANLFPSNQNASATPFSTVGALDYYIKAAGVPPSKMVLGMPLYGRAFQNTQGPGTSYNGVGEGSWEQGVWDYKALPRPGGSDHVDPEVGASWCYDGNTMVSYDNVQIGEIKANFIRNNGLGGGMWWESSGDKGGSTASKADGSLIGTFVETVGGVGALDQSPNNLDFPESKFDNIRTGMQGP
Sequence of TfChit (Talaromyces flavus; S181W/W209A) (chain, as listed by the source S181W W209A): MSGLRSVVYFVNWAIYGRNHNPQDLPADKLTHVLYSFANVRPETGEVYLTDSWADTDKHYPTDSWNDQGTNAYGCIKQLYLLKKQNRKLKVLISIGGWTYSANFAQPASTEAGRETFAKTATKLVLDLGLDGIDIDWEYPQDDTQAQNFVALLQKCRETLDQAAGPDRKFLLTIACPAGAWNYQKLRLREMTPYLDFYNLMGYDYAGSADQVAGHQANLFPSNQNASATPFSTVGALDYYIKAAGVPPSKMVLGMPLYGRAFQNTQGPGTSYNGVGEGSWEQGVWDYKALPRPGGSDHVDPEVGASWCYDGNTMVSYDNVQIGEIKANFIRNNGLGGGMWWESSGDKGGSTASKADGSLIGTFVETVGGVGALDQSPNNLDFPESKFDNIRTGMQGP
Sequence of TfChit (Talaromyces flavus; S181W) (chain, as listed by the source S181W): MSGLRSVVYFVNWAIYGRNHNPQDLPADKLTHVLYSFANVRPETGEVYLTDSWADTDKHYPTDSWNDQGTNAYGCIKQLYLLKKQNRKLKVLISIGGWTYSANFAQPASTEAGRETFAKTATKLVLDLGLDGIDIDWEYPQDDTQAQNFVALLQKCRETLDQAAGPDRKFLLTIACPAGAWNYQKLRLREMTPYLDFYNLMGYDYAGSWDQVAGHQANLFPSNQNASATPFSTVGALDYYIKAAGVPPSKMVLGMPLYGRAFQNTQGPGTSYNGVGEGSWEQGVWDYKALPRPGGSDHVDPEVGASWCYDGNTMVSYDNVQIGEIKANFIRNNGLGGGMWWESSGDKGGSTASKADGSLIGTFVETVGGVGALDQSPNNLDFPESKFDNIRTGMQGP
Sequence of TfChit (Talaromyces flavus; F231W/W209A) (chain, as listed by the source F231W W209A): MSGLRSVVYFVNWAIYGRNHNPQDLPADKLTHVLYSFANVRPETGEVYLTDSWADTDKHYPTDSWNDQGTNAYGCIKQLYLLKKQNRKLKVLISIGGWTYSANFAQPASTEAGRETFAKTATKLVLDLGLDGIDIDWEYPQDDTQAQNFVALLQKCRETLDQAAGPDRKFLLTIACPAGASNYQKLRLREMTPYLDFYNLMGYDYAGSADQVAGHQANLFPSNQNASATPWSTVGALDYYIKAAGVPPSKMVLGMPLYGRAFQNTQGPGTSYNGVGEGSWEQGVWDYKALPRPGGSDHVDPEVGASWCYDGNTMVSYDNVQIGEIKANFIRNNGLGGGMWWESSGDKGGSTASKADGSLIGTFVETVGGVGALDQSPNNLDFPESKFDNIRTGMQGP
Sequence of TfChit (Talaromyces flavus) (chain, as listed by the source): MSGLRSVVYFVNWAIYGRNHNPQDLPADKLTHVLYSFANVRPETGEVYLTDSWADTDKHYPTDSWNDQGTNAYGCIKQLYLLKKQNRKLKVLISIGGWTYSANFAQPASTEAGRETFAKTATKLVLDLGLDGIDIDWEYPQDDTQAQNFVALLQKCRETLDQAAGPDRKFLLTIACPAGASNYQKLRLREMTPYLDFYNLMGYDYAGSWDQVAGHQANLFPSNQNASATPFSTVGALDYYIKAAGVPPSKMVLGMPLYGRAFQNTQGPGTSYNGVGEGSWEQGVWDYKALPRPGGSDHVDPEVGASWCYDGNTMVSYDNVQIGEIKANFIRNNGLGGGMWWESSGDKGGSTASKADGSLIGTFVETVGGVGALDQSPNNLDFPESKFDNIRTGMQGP
Sequence of TfChit (Talaromyces flavus; W209A) (chain, as listed by the source W209A): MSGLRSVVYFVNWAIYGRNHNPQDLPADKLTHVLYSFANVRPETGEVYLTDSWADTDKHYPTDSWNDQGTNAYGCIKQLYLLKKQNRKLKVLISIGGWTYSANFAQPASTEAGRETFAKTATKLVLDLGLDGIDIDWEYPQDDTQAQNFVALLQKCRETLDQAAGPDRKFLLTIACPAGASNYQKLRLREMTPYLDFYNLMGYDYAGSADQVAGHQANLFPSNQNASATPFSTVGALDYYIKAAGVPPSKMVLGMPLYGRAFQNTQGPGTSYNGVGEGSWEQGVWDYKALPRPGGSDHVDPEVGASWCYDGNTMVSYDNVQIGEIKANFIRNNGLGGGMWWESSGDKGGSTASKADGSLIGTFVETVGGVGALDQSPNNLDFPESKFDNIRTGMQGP

Substance	Km	kcat	kcat/Km
TfChit (Talaromyces flavus)	1.2 mmol·L^–1	3.9 s⁻¹	3300 M⁻¹ s⁻¹
TfChit (Talaromyces flavus; D136V)	1.1 mmol·L^–1	5.3 s⁻¹	5000 M⁻¹ s⁻¹
TfChit (Talaromyces flavus; D136V/S181W)	4.3 mmol·L^–1	5.3 s⁻¹	1200 M⁻¹ s⁻¹
TfChit (Talaromyces flavus; D136V/S181W/W209A)	2.0 mmol·L^–1	5.6 s⁻¹	2800 M⁻¹ s⁻¹
TfChit (Talaromyces flavus; D136V/W209A)	3.6 mmol·L^–1	8.2 s⁻¹	2200 M⁻¹ s⁻¹
TfChit (Talaromyces flavus; F231W)	1.1 mmol·L^–1	1.9 s⁻¹	1800 M⁻¹ s⁻¹
TfChit (Talaromyces flavus; F231W/W209A)	1.3 mmol·L^–1	4.7 s⁻¹	3500 M⁻¹ s⁻¹
TfChit (Talaromyces flavus; S181W)	1.5 mmol·L^–1	6 s⁻¹	4000 M⁻¹ s⁻¹
TfChit (Talaromyces flavus; S181W/W209A)	2.6 mmol·L^–1	3.1 s⁻¹	1200 M⁻¹ s⁻¹
TfChit (Talaromyces flavus; W209A)	3.3 mmol·L^–1	6.1 s⁻¹	1900 M⁻¹ s⁻¹
